Paper PMC10847457 (Cell Discovery, 2024)

Experiments:
[1] = biological target: T1, SARS-CoV-2 RBD (aa 319-541) (SARS-CoV-2, UniProt P0DTC2); test: ELISA; conditions: both partners purified
T1 construct: source: Expi293 cells, transient transfection (pCMV3), purified

[2] = biological target: T2, SARS-CoV-2 NTD (aa 1-305) (SARS-CoV-2, UniProt P0DTC2); test: ELISA; conditions: both partners purified
T2 construct: source: Expi293 cells, transient transfection (pCMV3), purified

B1: PW5-535 (antibody, V domains shown)
VH: EVRLVESGGGLVQPGGSLRLSCAASGFTFRNYDIHWVRQTTGKGLEWVSAVGTSGDTYYLDSVKGRFTISREDAKKSVYLQMNSLRAGDTAMYYCVRGDASPDNIYYYMDVWGTGTRVIVSS
VL: DIQVTQSPSPLSASVGDRVTITCRASQTIGKYLNWYHQIPGKAPKLLISAASTLHSGVPSRFSGRGSGTDFTLTISSLQPEDFGTYYCQQSYSSPPWTFGQGTKVEIK
[1]
  binding result: binds
[2]
  binding result: no binding

B2: PW5-570 (antibody, V domains shown)
VH: QMQLVQSGPEVRKPGTSVKVSCRASVFSFDTSAVQWVRQARGQPLEWIGWIVFGSSNTDYAQKFRDRVTITGDMSTGTAYMELSSLRSEDTAVYYCAAPHCNRTNCHDGFDIWGQGTVVTVSS
VL: EIVLTQSPGTLSLSPGERATLSCRASQSVRSGYLGWYQQKPGQAPRLLIYGAYNRATGIPDRFRGSGSGTDFTLTISRLEPEDFVVYYCQQYDRSPWTFGQGTKVEIK
notes: also called PW5-570 IgG; PW5-570 immunoglobulin G
[1]
  binding result: binds
[2]
  binding result: no binding

B3: PW5-5 (antibody, V domains shown)
VH: QVQLVQSGAEVKKPGASVKVSCKTSGYTFTDHYMYWVRQAPGQGLEWMGVINPDAGSVTYAQKFQGRVTMTSDTSTSTVYMELSSLRSEDTAVYYCARDLFFIPAANSFDYWGQGTLVTVSS
VL: EIVLTQSPATLSLSPGERATLSCRASQSVSSYLAWYQQKPGQAPRLLIYDATNRATGIPARFSGSGSGTDFTLTISSLEPEDFAVYYCQHRSNWPRMFTFGQGTKLEIK
notes: also called PW5-5 IgG; IgG PW5-5
[1]
  binding result: binds
[2]
  binding result: no binding
